Experimental findings from article doi:10.1101/2021.09.12.459962 (bioRxiv, 2021) are described below.

The series deals with the molecule itself. Put plainly: AUC; sedimentation equilibrium of UDS1-His at 4 µM, 6000 to 9000 rpm, single-species model; monomers to dimer.

B1: UDS1-His6 (natural protein, Aspergillus nidulans, UniProt Q5B1I5 1-941, looked up)
chain: MNGFDFRSSQSSYGDPRHFSDASYGVPQPPPTKVLLDGYRDALGPANAEKSLYNSANPTSHPRRSIPPSANDPVAMYLLTETAMGDSVNYEILSVEEVEGLKKELRVLSNRMNAAKRKLALELKLRDAAMSLSRLHHKEEHDVDGSGRNEPNTDKTNEELVHINRKCEELSMDIWYSERKVQEIQKRLLEHTAGVLQLTHKGLKKNSKNGMPHTPESLSSSNTVDDFDDRSLYKASDPLDGPETYETRAPPPDNLAHDNSMQETERKLESMSSRLRDMLLQLDPDSEFSQIPQPSTSGDSFEPSAMIDAHLRYIENGISALGSLPKADMASQSLDPVSEQQLVEMRTQLLSIMENPGLPRAQTLPTAPDPTDSDLAKHLTFLSVGINGLESRVEKLLEQKSILTTQIQQQRELNSKSDAERDAKIADLIEQLAHLRKELELAEREGQQSKEDHDLTLKELEDVRRELLESRETHSSRDLGNSKNEAQQHAEAEIARLQSVIQEIQQEKDEHCEAHRRAEAEIDRLQAVIHQIQQEKDEHREAHERAEAETTRLQTIVEEVQQEKDEQHEAHGRAVAEVTRLQDIIQKIEQEKIERHEADERAEAEIVRLRDTIREIQQEKEEHHEARVRLEGEVARLQGVIGQLQESAESRESAEQQVAQLEETIHQIRHDADIRIKEATDSRAQADAKIAQLEGAMNEVRESLESQLKEATEARNNAEENSTRLQKELTELERDVVRAQTELTMVKAELDGAYGTRAQRAAEAAADPALFHELDELKARNFEMAEELAALKAGKPGSGDVHNRVETLERELRETVDDYEAMTKASIEFEKERERFESMIDSLRDRCEQLETQLNEERISWMGANNSASSMGRDGPYETTSTMVLKNEFKKMMRDTRAENMKILKAEQEERRKLEAILRNLKREQANLSGKSNISRTVTAS
notes: UDS1, product of AN5595 of Aspergillus nidulans, 941 residues; UDS1 cDNA cloned as NheI/NotI in pET21b; Mr 106,857 Da; Dimer by sedimentation equilibrium; also called purified UDS1; bacterially expressed UDS1; source: E. coli BLB21 pRIL, purified (Ni-Sepharose, Superdex gel filtration)
In general, stoichiometry N refers to the number of molecules, sites or subunits per partner or assembly. Regarding B1, the “stoichiometry N” value was found to be 2.
